Test results: patent US20070134249A1 (GENITOPE, published 2007)

Assays:
Assay in all cases: ELISA
Set-up in all cases: key: 0 = <0.5 OD, 1 = 0.5-1.0 OD, 4 = 1-4 OD
[1] = molecular target: T1, 839
T1 construct: H3-23 K4-1; also called PIN839
Excerpt: (§1) Before specificity screening, all of the clonal immunogen-positive hybridoma supernatants were re-screened on the immunogen, a non-family member Id protein, and KLH, if animals were immunized with Id protein that has been conjugated KLH. As described above, this screen identifies HC-specific clones but not mAbs against the light chain constant region. Clones identified positive to the immunogen and KLH were […]. Those found positive to the immunogen but not to the non-family member Id protein or KLH were tittered on the immunogen. In addition to normalizing for different binding affinities and concentrations, each hybridoma supernatant was titered on the fully human form of the Id protein used as the immunogen(s) for the V regions. The titer or dilution resulting in an ELISA absorbance of 2.5 to 3 OD after 30 min. incubation time was then used. Hybridoma specificity was determined by screening against available Id proteins expressing the same HV and KV or LV as well as different HV, KV and LV. The final ELISA results are expressed as follows: 0 (<0.5 OD), 1 (0.5-1.0 OD), or 4 (1-4 OD). Positive hybridoma supernatants are categorized according to specificity: anti-Id, anti-constant region (HC, KC or LC), or V region (HV, KV, LV family or family member).
(§2) In general, the fully human Id protein or proteins containing the immunogen V regions were coated onto 96-well ELISA plates at 2.5-5 ug/mL in carbonate buffer pH 9.6 and incubated at 4° C. for up to 14 days. On the day of the ELISA, plates were brought to RT and blocked with Tris-Tween-20, pH 7.6 for 15-60 min. at RT. Following a NaCl and Triton X-100 wash, diluted hybridoma cell culture supernatants were incubated overnight at 4° C. Hybridoma supernatant dilutions ranged from 1:2 to 1:25 and were prepared in PBS with 5% BSA. Plates were washed and incubated with HRP-conjugated goat anti-mouse IgG-specific detecting antibody. A chromogenic substrate (TMB) was used to measure the amount of mouse antibody bound to each well. The reaction was stopped at or before 30 minutes with IN H2SO4 and plates were read immediately. Absorbency readings at 450 nm ranging between 0-4 OD and using Molecular Devices plate reader and SOFTMAX PRO software.

[2] = molecular target: T2, 791
T2 construct: H3-30 K4-1; also called PIN791
Excerpt: as §1, §2

[3] = molecular target: T3, 585
T3 construct: H4-59 K4-1; also called PIN585
Excerpt: as §1, §2

[4] = molecular target: T4, 913
T4 construct: fully human Id protein; also called PIN913
Excerpt: as §1, §2

[5] = molecular target: T5, 844
T5 construct: H3-7 K4-1; also called PIN844
Excerpt: as §1, §2

[6] = molecular target: T6, 786
T6 construct: H3-7 K3-15; also called PIN786
Excerpt: as §1, §2

[7] = molecular target: T7, 626
T7 construct: H5-51 K4-1; also called PIN626
Excerpt: as §1, §2

Measured: grade

T4 sequence (heavy, as listed by the source): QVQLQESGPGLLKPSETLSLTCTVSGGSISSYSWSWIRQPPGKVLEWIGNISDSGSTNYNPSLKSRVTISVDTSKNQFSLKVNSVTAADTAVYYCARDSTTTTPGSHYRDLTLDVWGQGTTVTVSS

B1: mAb clone 12C3 (antibody, V domains shown)
VH: EVKLVESGGGLVQPGGSLSLSCAASGFTYTDYYMNWVRQPPGKALEWLALIRNKANGYTTEYSASLKGRFTISRDNSQSILYLQMNALRAEDSATYYCVRENINYYFDYWGQGTTLTVSS
VL: DIVLTQSPASLAVSLGQRATISCRASESVEYFGASLMQWYQQKSGQPPKLLIRAATNVESGVPARFSGSGSGTDFSLNIHPVEEDDIAMYFCQQSRKVPWTFGGGTKLEIKR
notes: Mouse hybridoma mAb, fusions 20/21 (PIN628 V regions)
4: [1] | [2] | [3] | [4] | [5] | [6] | [7]
